Here are results for 21 sequences from the supplement of paper PMC9170038.

The data set concerns MS2 coat protein. Description: apparent KD of MS2 coat protein; designed switch direction (-1 OFF switch, 1 ON switch): 1; higher = weaker reporter binding. A digest of the protocol:
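SNAP-549-labelled MS2 coat protein was titrated, doubling from 0.7 or 1.5 nM to 3 µM, over designed RNA switches transcribed on Illumina chips by stalled E. coli RNA polymerase. Runs were done without input, with 200 uM small-molecule ligand, or with an oligonucleotide input. Apparent KD is the per-design median over clusters of curve-fitted normalised fluorescence.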

Where [1] appears, read: input ligand: microRNA oligo, concentration not stated.
The mark [2] stands for this setting: Eterna round: R95, input ligand: FMN 200 uM.
Where [3] appears, read: Eterna round: R95, input ligand: microRNA oligo, concentration not stated.
Where [4] appears, read: Eterna round: R95, input ligand: none.

“UGGUACAUGGGAGGAUAUGGGCAAGGGACAUGAGGAUCACCCAUGUAUUAAAUGCCGAGAGGCAUCUAGAAGGCCCAUGUACCU [JL SSNG1 3.88] (Eterna round: R96, puzzle: Same State NG 2)”: the “apparent KD of MS2 coat protein” value (input ligand: FMN 200 uM) was found to be 0.0178 µM, the “apparent KD of MS2 coat protein” value under setting [1] was 0.0798 µM and the “apparent KD of MS2 coat protein” value (input ligand: none) was 0.173 µM.

For “GGAAUAUGAUGUUACAUGAGGAUCACCCAUGUAGUGAUAACUAAGGAUAUUUGAAAGGGAGGAGAAGAGAAGGUAGGAUCAUAA [AK SSNG3-V2-11.1] (Eterna round: R96, puzzle: Same State NG 3)”, the “apparent KD of MS2 coat protein” value by setting is: (input ligand: FMN 200 uM) 0.0607 µM; under setting [1], 0.0476 µM; (input ligand: none) 0.0637 µM.

For the sequence “UUGUUUCGUCAUUAACAUGAGGAUCACCCAUGUAUCGACUCAAAGGAUAUAUAUGCUUGUUUGCAAUAGAAGGUUGAUUGUUGU [JR_SSNG3_Sub092] (Eterna round: R96, puzzle: Same State NG 3)”, the “apparent KD of MS2 coat protein” value under setting [1] is 0.0281 µM.

Regarding “GUAGCAUACCGAGGAUAUUCAUAUUACAUGAGGAUCACCCAUGUUUUAGGCCGAUUACGGCCUUGGGAGAAGGCGGAAUGCUAC [Xeonanis - 20 Mod23] (Eterna round: R96, puzzle: Same State NG 2)”, the “apparent KD of MS2 coat protein” value was 0.0138 µM (input ligand: FMN 200 uM), 0.0201 µM under setting [1] and 0.0288 µM (input ligand: none).

For the sequence “GGAGCCGGUACUGAGGAUAUUCAUAUUAAAACAUGAGGAUCACCCAUGUAGGCCAGAAGGCCUUGGGAGAAGGCGGAUCGGCUCC [Biseusra - 2] (puzzle: Same State 2)”, the “apparent KD of MS2 coat protein” value reads like this: under setting [2], 0.022 µM; under setting [3], 0.18 µM; under setting [4], 0.417 µM.

With “AUUUUAGUCAGAGGAUAUUGUUUAUCUCUAUUACAAGAAGGCUGAUCUUACUACCCACUUAUGAAACAUGAGGAUCACCCAUGU [JR_SSNG1_Sub016] (Eterna round: R96, puzzle: Same State NG 1)”, the “apparent KD of MS2 coat protein” value runs as follows: (input ligand: FMN 200 uM) 0.0174 µM; under setting [1], 0.0206 µM; (input ligand: none) 0.0258 µM.

Take “UAUCCAUAGAUAGGAUAUCAGUAUACAUGAGGAUCACCCAUGUUAUACUUGGUUUUAAGUUAGUCUGAGAAGGAUCUUGAUGAA [SameState NG2 #4] (Eterna round: R96, puzzle: Same State NG 2)”: the “apparent KD of MS2 coat protein” value by setting is: (input ligand: FMN 200 uM) 0.0126 µM; under setting [1], 0.011 µM; (input ligand: none) 0.0129 µM.

In the case of “CCGGUUUAUGGAGGAUAUGGAGCCUUAUUGGCUCCAGAAGGCUAAUACAUGAGGAUCACCCAUGUUCCGGCGGUCAAUAGACCG [Eli NG1ss - 58] (Eterna round: R96, puzzle: Same State NG 1)”, the “apparent KD of MS2 coat protein” value (input ligand: FMN 200 uM) was determined as 0.0239 µM, the “apparent KD of MS2 coat protein” value under setting [1] stood at 0.0778 µM and the “apparent KD of MS2 coat protein” value (input ligand: none) is 0.126 µM.

Consider “UGAGCCGGCACUGAGGAUAUUCAUAUUUAAACAUGAGGAUCACCCAUGUAGGCCAGAAGGCCUUGGGAGAAGGCAGGUCGGCUCC [salish99_ss2_r3_079] (puzzle: Same State 2)”, for which the “apparent KD of MS2 coat protein” value came out at 0.0257 µM under setting [2], 0.264 µM under setting [3] and 0.459 µM under setting [4].

In the case of “UUGCCGCGGGUAGGAUAUGGUCACACUUCUAAAACAUGAGGAUCACCCAUGUCCGACACAUAAAGCCAGAAGGACCCGCGGCUC [Erisriin] (Eterna round: R96, puzzle: Same State NG 2)”, the “apparent KD of MS2 coat protein” value (input ligand: FMN 200 uM) came to 0.0182 µM, the “apparent KD of MS2 coat protein” value under setting [1] came out at 0.0474 µM and the “apparent KD of MS2 coat protein” value (input ligand: none) stood at 0.0773 µM.

Take “AGAUGGUGUGGAAAGGAUAUACUGUUGAGGACAUGAGGAUCACCCAUGUGGUAGAGGAGGUAAGGGUAGAAGGUUCGGGAUUGGU [JR_SS@_Sub020] (puzzle: Same State 2)”: the “apparent KD of MS2 coat protein” value worked out at 0.0299 µM under setting [2], 0.0323 µM under setting [3] and 0.0416 µM under setting [4].

As for “GCUGGAAACCACAUGAGGAUCACCCAUGUUCCGGAAACGGCACAGGAUAUCUGUCCGAAAAGGUCAGAGAAGGGUGUAACCAGC [Fiskers NG3ss - 86] (Eterna round: R96, puzzle: Same State NG 3)”, the “apparent KD of MS2 coat protein” value stood at 0.19 µM (input ligand: FMN 200 uM), 0.338 µM under setting [1] and 0.245 µM (input ligand: none).

In the case of “GUUAAACAUGAGGAUCACCCAUGUCAAUGUAGUCGAGGAUAUGGGCAGCUAUGAGGCGUACUAGAAGGCGAAGAGU [Mat - Same State 1 - Mod of JL - D12] (Eterna round: R96, puzzle: Same State 1)”, under setting [1], the “apparent KD of MS2 coat protein” value stood at 0.224 µM.

Take “AAACUACAUGAGGAUCACCCAUGUGAAAACCGCAUAGGAUAUCCGCAGCAAUGAGCUGACGGAGAAGGGUGACCGG [Riater] (puzzle: Same State 1)”: the “apparent KD of MS2 coat protein” value reads like this: under setting [2], 0.175 µM; under setting [3], 0.103 µM; under setting [4], 0.276 µM.

As to “ACAUUUAGCUCUUGCACAUGAGGAUCACCCAUGUUCAGUUCACAGGAUAUCUAGUCAAACGGAUCGGAGAAGGGUGGCAGGAGC [Erquzaa] (Eterna round: R96, puzzle: Same State NG 3)”, the “apparent KD of MS2 coat protein” value reads like this: (input ligand: FMN 200 uM) 0.0863 µM; under setting [1], 0.185 µM; (input ligand: none) 0.294 µM.

Take “CCGAUAAAUGGAGGAUAUGGAGCCUUAUUGGCUCCAGAAGGCUAAUAACAUGAGGAUCACCCAUGUCGGCGGUCUAAUGACCGA [Eli NG1ss - 51] (Eterna round: R96, puzzle: Same State NG 1)”: the “apparent KD of MS2 coat protein” value under setting [1] is 0.0464 µM.

Regarding “UGUACCUGCACAGGAUAUCAUGCGAAAAUUGCGUGAGAAGGGUGAAUACUGUCUUUCUAAGAGUACAUGAGGAUCACCCAUGUA [SameState NG1 #61] (Eterna round: R96, puzzle: Same State NG 1)”, the “apparent KD of MS2 coat protein” value stood at 0.156 µM (input ligand: FMN 200 uM), 0.0918 µM under setting [1] and 0.119 µM (input ligand: none).

On to “CCAUGGUAACAUGAGGAUCACCCAUGUACAAGCUUUUUGCUCGUUUUAUUUAUUAUUAUUAUUAUUAUUAUUAUUAA [Nishu_Seq1] (puzzle: Sensor for hsa-mir-208a version 2)”, for which the “apparent KD of MS2 coat protein” value turned out to be 0.0335 µM under setting [2], 0.105 µM under setting [3] and 0.0866 µM under setting [4].

On to “AGUCCAGCCUGAGCUGGACAAAAGCAUGUACAUGAGGAUCACCCAUGUCAUGUACAAGUUUUUUGCUCGUUUUAAUA [Zipper 49 - 18] (puzzle: Sensor for hsa-mir-208a)”, for which the “apparent KD of MS2 coat protein” value is, setting by setting: under setting [2], 0.0489 µM; under setting [3], 0.0122 µM; under setting [4], 0.052 µM.

As for “GACAAUCUAUCUGAGGAUAUCAUGAGAAUAACAUGAGGAUCACCCAUGUGCAGGAAAACUGCAUAUGAGAAGGCAGAUAGAUUGA [Mat - Same State 2 - Mod - D15] (puzzle: Same State 2)”, the “apparent KD of MS2 coat protein” value runs as follows: under setting [2], 0.0482 µM; under setting [3], 0.567 µM; under setting [4], 0.603 µM.

Turning to “GGAGAACAUGAGGAUCACCCAUGUGAGAGGGAUGUAGGAUAUGUGAGGAGUAAAGGAGGGACAGAAGGACAGAGAU [JR_SS!_Sub068] (puzzle: Same State 1)”, the “apparent KD of MS2 coat protein” value under setting [2] is 0.0374 µM, the “apparent KD of MS2 coat protein” value under setting [3] was 0.0405 µM and the “apparent KD of MS2 coat protein” value under setting [4] was 0.0477 µM.
